Measurements: patent EP0239400B1

What was measured:
[1] = biological target: hen eggwhite lysozyme (hen) (UniProt P00698); assay: fluorescence quench titration with hen eggwhite lysozyme, in solution; reassociated chains
[2] = biological target: hen eggwhite lysozyme (hen) (UniProt P00698); assay: fluorescence quench titration with hen eggwhite lysozyme, in solution

Chain of UniProt P00698 (P00698 19-147 limits assumed): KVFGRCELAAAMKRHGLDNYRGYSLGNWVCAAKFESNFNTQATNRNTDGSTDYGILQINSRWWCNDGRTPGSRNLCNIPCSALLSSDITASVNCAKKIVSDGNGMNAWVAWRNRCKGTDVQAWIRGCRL

Kd [1] [nM] | Kd [2] [nM] | Substance
9.2 |  | recombinant D1.3 (H*₂K₂) (reassociated) (antibody)
11.4 | 14.4 | antilysozyme antibody D1.3 (H₂K₂)
